Results from publication PMC8379176 (Nature Communications, 2021).
pKd: −log10 of the molar value.

Key:
Test in all cases: AlphaScreen or HTRF; saturation binding on HEK293 cells transfected with SNAP-ghrelin receptor (WT or mutants) labelled with SNAP-Lumi4-Tb; increasing concentrations of ghrelin-A2 in the presence or absence of 10 uM unlabeled ghrelin, 1 h at R.T.; HTRF ratio 665 nm/620 nm; one Kd for each of three experiments
[1] = target: N-terminal-SNAP-tagged ghrelin receptor F312A (human) (UniProt Q92847)
[2] = target: N-terminal-SNAP-tagged ghrelin receptor Q302A (human) (UniProt Q92847)
[3] = target: N-terminal-SNAP-tagged ghrelin receptor, wild type (human) (UniProt Q92847)

ghrelin-A2 (full-length ghrelin labeled with the dye A2 on an additional cysteine at the C-terminal end) (peptide)
pKd [1]: 7.11 | pKd [2]: < 6.30 | pKd [3]: 7.96
